For 27 molecules, He/Con_2aR results are on record in US20180155451A1 (published 2018).

Sequences and labels used below:
B1: GpH7-A5/GpH7-B3 variant S267_03V/GpL16-k0 (antibody, human IgG1, kappa)
heavy 1: not shown
heavy 2: not shown
light: DIVMTQSPLSLPVTPGEPASISCQASESLVHSNRNTYLHWYLQKPGQSPQLLIYKVSNRFSGVPDRFSGSGSGTDFTLKISRVEAEDVGVYYCSQNTHVPPTFGQGTKVEIERTVAAPSVFIFPPSDEQLKSGTASVVCLLNNFYPREAKVQWKVDNALQSGNSQESVTEQDSKDSTYSLSSTLTLSKADYEKHKVYACEVTHQGLSSPVTKSFNRGEC
notes: heterodimerized; mutation in one H chain; also called He Ab
B2: GpH7-A5/GpH7-B3 variant S337_16H/GpL16-k0 (antibody, human IgG1, kappa)
heavy 1: not shown
heavy 2: not shown
light: B1 light
notes: as for B1
B3: GpH7-A5/GpH7-B3 variant L235_20W/GpL16-k0 (antibody, human IgG1, kappa)
heavy 1: not shown
heavy 2: not shown
light: B1 light
notes: as for B1
B4: GpH7-A5/GpH7-B3 variant T335_02A/GpL16-k0 (antibody, human IgG1, kappa)
heavy 1: not shown
heavy 2: not shown
light: B1 light
notes: as for B1
B5: GpH7-A5/GpH7-B3 variant S337_15Y/GpL16-k0 (antibody, human IgG1, kappa)
heavy 1: not shown
heavy 2: not shown
light: B1 light
notes: as for B1
B6: GpH7-A5/GpH7-B3 variant T335_13S/GpL16-k0 (antibody, human IgG1, kappa)
heavy 1: not shown
heavy 2: not shown
light: B1 light
notes: as for B1
B7: GpH7-A5/GpH7-B3 variant P271_08L/GpL16-k0 (antibody, human IgG1, kappa)
heavy 1: not shown
heavy 2: not shown
light: B1 light
notes: as for B1
B8: GpH7-A5/GpH7-B3 variant S337_19Q/GpL16-k0 (antibody, human IgG1, kappa)
heavy 1: not shown
heavy 2: not shown
light: B1 light
notes: as for B1
B9: GpH7-A5/GpH7-B3 variant S337_07I/GpL16-k0 (antibody, human IgG1, kappa)
heavy 1: not shown
heavy 2: not shown
light: B1 light
notes: as for B1
B10: GpH7-A5/GpH7-B3 variant S239_10E/GpL16-k0 (antibody, human IgG1, kappa)
heavy 1: not shown
heavy 2: not shown
light: B1 light
notes: as for B1
B11: GpH7-A5/GpH7-B3 variant L328_14T/GpL16-k0 (antibody, human IgG1, kappa)
heavy 1: not shown
heavy 2: not shown
light: B1 light
notes: as for B1
B12: GpH7-A5/GpH7-B3 variant S298_08L/GpL16-k0 (antibody, human IgG1, kappa)
heavy 1: not shown
heavy 2: not shown
light: B1 light
notes: as for B1
B13: GpH7-A5/GpH7-B3 variant P331_20W/GpL16-k0 (antibody, human IgG1, kappa)
heavy 1: not shown
heavy 2: not shown
light: B1 light
notes: as for B1
B14: GpH7-A5/GpH7-B3 variant K334_04F/GpL16-k0 (antibody, human IgG1, kappa)
heavy 1: not shown
heavy 2: not shown
light: B1 light
notes: as for B1
B15: GpH7-A5/GpH7-B3 variant S324_06M/GpL16-k0 (antibody, human IgG1, kappa)
heavy 1: not shown
heavy 2: not shown
light: B1 light
notes: as for B1
B16: GpH7-A5/GpH7-B3 variant K334_10E/GpL16-k0 (antibody, human IgG1, kappa)
heavy 1: not shown
heavy 2: not shown
light: B1 light
notes: as for B1
B17: GpH7-A5/GpH7-B3 variant S239_08L/GpL16-k0 (antibody, human IgG1, kappa)
heavy 1: not shown
heavy 2: not shown
light: B1 light
notes: as for B1
B18: GpH7-A5/GpH7-B3 variant S337_10E/GpL16-k0 (antibody, human IgG1, kappa)
heavy 1: not shown
heavy 2: not shown
light: B1 light
notes: as for B1
B19: GpH7-A5/GpH7-B3 variant P238_03V/GpL16-k0 (antibody, human IgG1, kappa)
heavy 1: not shown
heavy 2: not shown
light: B1 light
notes: as for B1
B20: GpH7-A5/GpH7-B3 variant K334_08L/GpL16-k0 (antibody, human IgG1, kappa)
heavy 1: not shown
heavy 2: not shown
light: B1 light
notes: as for B1
B21: GpH7-A5/GpH7-B3 variant S337_18N/GpL16-k0 (antibody, human IgG1, kappa)
heavy 1: not shown
heavy 2: not shown
light: B1 light
notes: as for B1
B22: GpH7-A5/GpH7-B3 variant K334_19Q/GpL16-k0 (antibody, human IgG1, kappa)
heavy 1: not shown
heavy 2: not shown
light: B1 light
notes: as for B1
B23: GpH7-A5/GpH7-B3 variant S337_06M/GpL16-k0 (antibody, human IgG1, kappa)
heavy 1: not shown
heavy 2: not shown
light: B1 light
notes: as for B1
B24: GpH7-A5/GpH7-B3 variant T335_05P/GpL16-k0 (antibody, human IgG1, kappa)
heavy 1: not shown
heavy 2: not shown
light: B1 light
notes: as for B1
B25: GpH7-A5/GpH7-B3 variant S267_09D/GpL16-k0 (antibody, human IgG1, kappa)
heavy 1: not shown
heavy 2: not shown
light: B1 light
notes: as for B1
B26: GpH7-A5/GpH7-B3 variant S239_18N/GpL16-k0 (antibody, human IgG1, kappa)
heavy 1: not shown
heavy 2: not shown
light: B1 light
notes: as for B1
B27: GpH7-A5/GpH7-B3 variant S267_19Q/GpL16-k0 (antibody, human IgG1, kappa)
heavy 1: not shown
heavy 2: not shown
light: B1 light
notes: as for B1

This assay has as its target T1, FcγRIIa R (extracellular domain with a His tag at the C terminus) (human, UniProt P12318 34-217).
T1 construct: extracellular domain; expressed in FreeStyle293 cells; also called FcgRIIa R; FcγRIIa type R; not shown: His tag at the C terminus
T1 sequence (looked up): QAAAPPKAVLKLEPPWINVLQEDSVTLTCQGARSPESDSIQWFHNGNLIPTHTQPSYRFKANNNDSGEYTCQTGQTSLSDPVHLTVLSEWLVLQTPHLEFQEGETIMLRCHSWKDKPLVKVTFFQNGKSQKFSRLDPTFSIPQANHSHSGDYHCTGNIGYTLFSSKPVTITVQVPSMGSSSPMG
The assay can be described thus: SPR Biacore, relative binding. A general note: Surface plasmon resonance follows binding to a sensor surface in real time, without labels.
With B1, the He/Con_2aR is 116 % of GpH7-A5/GpH7-B3/GpL16-k0 (=100).
In the case of B2 it was 109 % of GpH7-A5/GpH7-B3/GpL16-k0 (=100).
On to B3, for which the He/Con_2aR is 131 % of GpH7-A5/GpH7-B3/GpL16-k0 (=100).
B4: the He/Con_2aR was 102 % of GpH7-A5/GpH7-B3/GpL16-k0 (=100).
In the case of B5 it was 105 % of GpH7-A5/GpH7-B3/GpL16-k0 (=100); in that of B6, 110 % of GpH7-A5/GpH7-B3/GpL16-k0 (=100); in that of B7, 104 % of GpH7-A5/GpH7-B3/GpL16-k0 (=100).
In the case of B8 it was 106 % of GpH7-A5/GpH7-B3/GpL16-k0 (=100); in that of B9, 109 % of GpH7-A5/GpH7-B3/GpL16-k0 (=100); in that of B10, 135 % of GpH7-A5/GpH7-B3/GpL16-k0 (=100).
The figure for B11 is 119 % of GpH7-A5/GpH7-B3/GpL16-k0 (=100); for B12 it is 105 % of GpH7-A5/GpH7-B3/GpL16-k0 (=100); for B13 it is 110 % of GpH7-A5/GpH7-B3/GpL16-k0 (=100).
For B14, the He/Con_2aR is 110 % of GpH7-A5/GpH7-B3/GpL16-k0 (=100).
For B15, the He/Con_2aR is 123 % of GpH7-A5/GpH7-B3/GpL16-k0 (=100).
For the molecule B16, the He/Con_2aR is 106 % of GpH7-A5/GpH7-B3/GpL16-k0 (=100).
Regarding B17, the He/Con_2aR is 122 % of GpH7-A5/GpH7-B3/GpL16-k0 (=100).
In the case of B18 it was 112 % of GpH7-A5/GpH7-B3/GpL16-k0 (=100); in that of B19, 120 % of GpH7-A5/GpH7-B3/GpL16-k0 (=100); in that of B20, 106 % of GpH7-A5/GpH7-B3/GpL16-k0 (=100).
As for B21, the He/Con_2aR is 107 % of GpH7-A5/GpH7-B3/GpL16-k0 (=100).
The figure for B22 is 109 % of GpH7-A5/GpH7-B3/GpL16-k0 (=100).
The figure for B23 is 105 % of GpH7-A5/GpH7-B3/GpL16-k0 (=100).
For B24, the He/Con_2aR is 104 % of GpH7-A5/GpH7-B3/GpL16-k0 (=100).
On to B25, for which the He/Con_2aR was 173 % of GpH7-A5/GpH7-B3/GpL16-k0 (=100).
In the case of B26 it was 111 % of GpH7-A5/GpH7-B3/GpL16-k0 (=100); in that of B27, 135 % of GpH7-A5/GpH7-B3/GpL16-k0 (=100).
